Measurements: patent US20200165324A1

Legend:
[1] = molecular target: Env of the 12-virus indicator panel; test: cell-based or functional assay
[2] = molecular target: Env of the 117-virus panel (117 cross-clade virus panel); test: cell-based or functional assay
[3] = molecular target: stabilized BG505 SOSIP construct MD39 (HIV isolate BG505); test: competition ELISA on MD39 vs b12
[4] = molecular target: stabilized BG505 SOSIP construct MD39 (HIV isolate BG505); test: competition ELISA on MD39 vs PGT128
[5] = molecular target: stabilized BG505 SOSIP construct MD39 (HIV isolate BG505); test: competition ELISA on MD39 vs VRC01
[6] = molecular target: stabilized BG505 SOSIP construct MD39 (HIV isolate BG505); test: competition ELISA on MD39 vs CH103
[7] = molecular target: stabilized BG505 SOSIP construct MD39 (HIV isolate BG505); test: competition ELISA on MD39 vs PGT151
[8] = molecular target: stabilized BG505 SOSIP construct MD39 (HIV isolate BG505); test: competition ELISA on MD39 vs 35022
[9] = molecular target: stabilized BG505 SOSIP construct MD39 (HIV isolate BG505); test: competition ELISA on MD39 vs PGDM1400
[10] = molecular target: stabilized BG505 SOSIP construct MD39 (HIV isolate BG505); test: competition ELISA on MD39 vs PGT121
[11] = molecular target: stabilized BG505 SOSIP construct MD39 (HIV isolate BG505); test: competition ELISA on MD39 vs 3BNC117
[12] = molecular target: stabilized BG505 SOSIP construct MD39 (HIV isolate BG505); test: competition ELISA on MD39 vs Self
[13] = molecular target: stabilized BG505 SOSIP construct MD39 (HIV isolate BG505); test: competition ELISA on MD39 vs PG9
[14] = molecular target: stabilized BG505 SOSIP construct MD39 (HIV isolate BG505); test: competition ELISA on MD39 vs 12A12
[15] = molecular target: gp120 (isolate 92BR020) (HIV-1 isolate 92BR020); test: ELISA on gp120 (isolate 92BR020), buffer pH 5.5
[16] = molecular target: gp120 (isolate 92BR020) (HIV-1 isolate 92BR020); test: ELISA on gp120 (isolate 92BR020), buffer pH 6

B1: NC-Cow1 (antibody)
VH: QVQLRESGPSLMKPSQTLSLTCTVSGSSLNDKSVGWVRQAPGKALQWLGSVDTSGNTDYNPGLKSRLSITKDNSKSRISLTVTGMTTEDSATYYCITAHQKTNKKECPEDYTYNPRCPQQYGWSDCDCMGDRFGGYCRQDGCSNYIHRSTYEWYVSAWGQGLLVTVSS
VL: SYELTQPSSVSGSLGQRVSVTCSGSSSNVGNGYVSWYQLIPGSAPRTIIYGDTSRASGVPERFSGSRSGNTATLTISSLQAEDEADFFCASPDDSSSNAVFGSGTTLTVL
**Q.** B1 was tested. Which median IC50 of neutralization on the 12-virus indicator panel [1] did it give?
**A.** 0.007 µg/mL

**Q.** And the neutralization breadth on the 12-virus indicator panel [1]?
**A.** 100%

**Q.** And the median IC50 of neutralization on the 117-virus panel [2]?
**A.** 0.028 µg/mL

**Q.** What about the neutralization breadth on the 117-virus panel (pseudovirus, TZM-bl cells) [2] of the same binder?
**A.** 72%

**Q.** What about the IC50, pseudovirus neutralization (BG505 D474A) of the same binder?
**A.** 0.009 µg/mL

**Q.** And the IC50, pseudovirus neutralization (JR-CSF V372A)?
**A.** > 50 µg/mL

**Q.** And the IC50, pseudovirus neutralization (BG505 N276A)?
**A.** 0.011 µg/mL

**Q.** And the IC50, pseudovirus neutralization (JR-CSF D279A)?
**A.** 1.02 µg/mL

**Q.** And the IC50, pseudovirus neutralization (JR-CSF K282A)?
**A.** > 50 µg/mL

**Q.** And the IC50, pseudovirus neutralization (BG505 N262A)?
**A.** 0.014 µg/mL

**Q.** And the IC50, pseudovirus neutralization (JR-CSF P369A)?
**A.** 1.24 µg/mL

**Q.** And the IC50, pseudovirus neutralization (JR-CSF D474A)?
**A.** 0.744 µg/mL

**Q.** What about the IC50, pseudovirus neutralization (JR-CSF M373A) of the same binder?
**A.** 2.52 µg/mL

B2: germline PG9 HC (NC-Cow1 VH CDR3) + mature PG9 LC (antibody)
VH: QVQLVESGGGVVQPGRSLRLSCAASGFTFSSYGMHWVRQAPGKGLEWVAVISYDGSNKYYADSVKGRFTISRDNSKNTLYLQMNSLRAEDTAVYYCITAHQKTNKKECPEDYTYNPRCPQQYGWSDCDCMGDRFGGYCRQDGCSNYIHRSTYEWYVSAWGKGTTVTVSS
VL: QSALTQPASVSGSPGQSITISCNGTSNDVGGYESVSWYQQHPGKAPKVVIYDVSKRPSGVSNRFSGSKSGNTASLTISGLQAEDEGDYYCKSLTSTRRRVFGTGTKLTVL
**Q.** With B2 as the binder, how does the median IC50 of neutralization on the 12-virus indicator panel [1] read?
**A.** 0.054 µg/mL

**Q.** What about the neutralization breadth on the 12-virus indicator panel [1] of the same binder?
**A.** 88%

B3: NC-Cow2 (antibody)
VH: KVQLRESGPSLVKPSQTLSLTCMVSGSSLSDKAVGWVRQAPGKALEWLGIISAGGNRGYNSGLRSRLTISKDNSKNEVSLRVRSVTTEDSATYFCGTVHQKTQRKPICPDGYSDDSTLRYYSRCSDRDCWRCTGTTYYDTCQCGTYTWIDTHELHVDAWGQGLLVTVSS
VL: QAVLNQPSSVSGSLGQRVSITCSGSSSNVGNGYVSWYQLIPGSAPRTLIYGDTSRASGVPDRFSGSRSGNTATLTISSLQAEDEADYFCASAEDSSSNAVFGSGTTLTVL
**Q.** For B3, which competition value [3] is on record?
**A.** 0

**Q.** What about the competition value [4] of the same binder?
**A.** 57

**Q.** What about the competition value [5] of the same binder?
**A.** 93

**Q.** And the competition value [6]?
**A.** 11

**Q.** And the competition value [7]?
**A.** 11

**Q.** And the competition value [8]?
**A.** 11

**Q.** What about the competition value [9] of the same binder?
**A.** 18

**Q.** What about the competition value [10] of the same binder?
**A.** 27

**Q.** What about the competition value [11] of the same binder?
**A.** 93

**Q.** And the competition value [12]?
**A.** 91

**Q.** And the competition value [13]?
**A.** 4

**Q.** And the competition value [14]?
**A.** 94

B4: PGV04 (antibody, from a related filing, V domains shown)
VH: QVQLVQSGSGVKKPGASVRVSCWTSEDIFERTELIHWVRQAPGQGLEWIGWVKTVTGAVNFGSPDFRQRVSLTRDRDLFTAHMDIRGLTQGDTATYFCARQKFYTGGQGWYFDLWGRGTLIVVSS
VL: EIVLTQSPGTLSLSPGETASLSCTAASYGHMTWYQKKPGQPPKLLIFATSKRASGIPDRFSGSQFGKQYTLTITRMEPEDFARYYCQQLEFFGQGTRLEIR
**Q.** Which results are given for B4?
**A.** EC50 (read off the curve) [15]: 0.2 µg/mL; EC50 (read off the curve) [16]: 0.2 µg/mL

B5: NC-Cow4 (antibody)
VH: KVQLRESGPSLVKPSQTLSLTCMVSGFSLNDEAVGWVRQAPGKALEWLGSIDAGGSTGYNPGLKSRLSISKDNSKNQVSLSVSSVTTEDSATYYCGTVHQRTQPKQTCPNGYSDDSALRYYSRCSDRDCWRCTGTTYYDTCQCSSYTYIHTYELYVDAWGQGLLVTVSS
VL: QAVLTQPSSVSGSLGQRVSITCSGSSSNVGNGYVSWYQLIPGSAPRTLIYGDTSRASGVPDRFSGSRSGNTATLTISSLQAEDEADYFCASPEDSSSNAVFGSGTTLTVL
**Q.** With B5 as the binder, how does the competition value [3] read?
**A.** 29

**Q.** What about the competition value [4] of the same binder?
**A.** 35

**Q.** What about the competition value [5] of the same binder?
**A.** 94

**Q.** What about the competition value [6] of the same binder?
**A.** 13

**Q.** What about the competition value [7] of the same binder?
**A.** 20

**Q.** And the competition value [8]?
**A.** 18

**Q.** And the competition value [9]?
**A.** 22

**Q.** What about the competition value [10] of the same binder?
**A.** -11

**Q.** And the competition value [11]?
**A.** 95

**Q.** What about the competition value [12] of the same binder?
**A.** 84

**Q.** And the competition value [13]?
**A.** 7

**Q.** What about the competition value [14] of the same binder?
**A.** 95

B6: NC-Cow5 (antibody)
VH: QVQLQESGPSLVKPSQTLSLTCMVSGFSLNDKAVGWVRQAPGKALEWLGSIDAGGSTGYNPGLKSRLSISKDNSKNQVSLSVSSVTTEDSATYYCGTVHQRTQPKQTCPNGYSDDSALRYYSRCSDRDCWRCTGTTYYDTCQCSSYTYIHTYELYVDAWGQGLLVTVSS
VL: QDVLTQPSSVSGSLGQRVSITCSGSSSNVGNGYVSWYQLIPGSAPRTLIYGDTSRASGVPDRFSGSRSGNTATLTISSLQAEDEADYFCASPEDSSSNAVFGSGTTLTVL
**Q.** How did the competition value [3] turn out when B6 was run?
**A.** 23

**Q.** And the competition value [4]?
**A.** 71

**Q.** What about the competition value [5] of the same binder?
**A.** 95

**Q.** What about the competition value [6] of the same binder?
**A.** 38

**Q.** What about the competition value [7] of the same binder?
**A.** 2

**Q.** And the competition value [8]?
**A.** 14

**Q.** And the competition value [9]?
**A.** 3

**Q.** What about the competition value [10] of the same binder?
**A.** 21

**Q.** What about the competition value [11] of the same binder?
**A.** 94

**Q.** And the competition value [12]?
**A.** 37

**Q.** What about the competition value [13] of the same binder?
**A.** 21

**Q.** And the competition value [14]?
**A.** 95

B7: NC-Cow7 (antibody)
VH: KVQLRESGPSLVKPFETLSLTCTGSGFSLSDKAAGWVRQAPGKAPEWLGSIDTGGNTGYNPGLKYRLSITKDNSKSQVSLSVSSMTSEDSATYYCTTVHQKAYKKVCPDDYSSNPDCVRLYGWSHCDCMRDSFGGWCRADGCSSTVEIGPYEWYVNAWGQGLLVTVSS
VL: QAVLTQPSSVSGSLGQRVSITCSGSSSNVGNGYVSWYQLIPGSAPRSLIYGDTSRASGVPDRFSGSRSGNTATLTISSLQAEDEADYFCASPEDSSSNGVFGSGTTLTVL
**Q.** What does the source list for B7?
**A.** competition value [3]: 9; competition value [4]: 31; competition value [5]: 87; competition value [6]: 35; competition value [7]: 20; competition value [8]: 5; competition value [9]: 12; competition value [10]: 23; competition value [11]: 90; competition value [12]: 90; competition value [13]: 8; competition value [14]: 92
